Assay results reported in patent US7041790B2, “Fibrinogen binding moieties” (Dyax Corp., priority 2002, dated 2006).
Bridges are numbered along the chain shown (N, C = ends).

Biological target: T1, purified human fibrinogen (Homo sapiens, UniProt P02671+P02675+P02679)
T1 construct: purchased Calbiochem 341576
T1 sequence (P02671 20-629 limits assumed): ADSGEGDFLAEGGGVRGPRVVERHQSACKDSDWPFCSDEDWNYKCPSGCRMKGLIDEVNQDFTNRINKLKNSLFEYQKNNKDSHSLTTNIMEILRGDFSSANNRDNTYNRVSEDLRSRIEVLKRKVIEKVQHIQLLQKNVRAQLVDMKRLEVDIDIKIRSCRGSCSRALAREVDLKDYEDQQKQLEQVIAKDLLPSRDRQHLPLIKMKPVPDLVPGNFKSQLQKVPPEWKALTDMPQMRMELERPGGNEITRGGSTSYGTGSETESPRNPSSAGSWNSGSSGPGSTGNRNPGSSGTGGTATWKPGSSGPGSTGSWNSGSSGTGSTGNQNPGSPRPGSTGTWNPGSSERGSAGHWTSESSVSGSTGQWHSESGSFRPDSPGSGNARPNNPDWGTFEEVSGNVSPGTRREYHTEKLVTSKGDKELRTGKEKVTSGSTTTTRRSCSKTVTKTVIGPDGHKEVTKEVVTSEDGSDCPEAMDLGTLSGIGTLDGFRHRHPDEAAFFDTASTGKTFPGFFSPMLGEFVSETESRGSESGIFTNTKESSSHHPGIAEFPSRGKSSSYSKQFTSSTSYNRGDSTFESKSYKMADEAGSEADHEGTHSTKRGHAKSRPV
T1 sequence (P02675 31-491): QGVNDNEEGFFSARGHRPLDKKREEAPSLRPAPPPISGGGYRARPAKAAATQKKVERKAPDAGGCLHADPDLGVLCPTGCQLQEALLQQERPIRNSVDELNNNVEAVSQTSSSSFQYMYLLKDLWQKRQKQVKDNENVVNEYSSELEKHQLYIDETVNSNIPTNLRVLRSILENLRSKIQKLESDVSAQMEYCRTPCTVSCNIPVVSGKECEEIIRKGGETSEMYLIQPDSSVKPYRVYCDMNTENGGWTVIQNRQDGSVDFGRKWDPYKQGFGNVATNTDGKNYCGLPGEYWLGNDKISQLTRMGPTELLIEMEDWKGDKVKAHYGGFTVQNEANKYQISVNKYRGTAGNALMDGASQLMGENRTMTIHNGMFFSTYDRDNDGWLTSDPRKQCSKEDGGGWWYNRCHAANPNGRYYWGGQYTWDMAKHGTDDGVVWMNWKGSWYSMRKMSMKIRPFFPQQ
T1 sequence (P02679 27-433 limits assumed): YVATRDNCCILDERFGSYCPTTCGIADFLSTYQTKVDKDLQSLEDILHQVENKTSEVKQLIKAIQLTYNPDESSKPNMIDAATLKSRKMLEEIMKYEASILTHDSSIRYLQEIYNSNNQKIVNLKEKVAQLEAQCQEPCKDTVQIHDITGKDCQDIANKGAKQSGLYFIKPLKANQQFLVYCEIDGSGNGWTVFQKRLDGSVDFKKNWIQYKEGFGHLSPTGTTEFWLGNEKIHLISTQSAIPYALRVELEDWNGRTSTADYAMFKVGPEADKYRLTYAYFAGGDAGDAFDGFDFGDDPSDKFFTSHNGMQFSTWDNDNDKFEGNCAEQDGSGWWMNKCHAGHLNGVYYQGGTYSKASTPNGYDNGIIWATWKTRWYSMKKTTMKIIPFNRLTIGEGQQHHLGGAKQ
Assay: Purified fibrinogen binding capacity of fibrinogen binding columns
Conditions: purified fibrinogen 0.5 mg/ml in PBS injected continuously, eluted with glycine 0.1M pH 2.5
Description: FIG. 1 is a chromatogram illustrating the purified fibrinogen binding capacity of a fibrinogen binding column utilizing the fibrinogen binding peptide of SEQ ID NO:48 and having a ligand density of 2.0 μM/ml resin. Purified fibrinogen (0.5 mg/ml in PBS) was injected continuously onto the column until the A280 reading reached a plateau. The column was then washed with PBS until a baseline reading was obtained and then eluted with glycine buffer (0.1M, pH 2.5). The eluted fraction (major peak) was collected and analyzed by HPLC Size Exclusion Chromatography (SEC). The capacity of the column was calculated to be 2.076 mg fibrinogen/ml resin.
FIG. 2 is a chromatogram illustrating the purified fibrinogen binding capacity of a fibrinogen binding column utilizing the fibrinogen binding peptide of SEQ ID NO:48 and having a ligand density of 4.0 μM/ml resin. Purified fibrinogen (0.5 mg/ml in PBS) was injected continuously onto the column until the A280 reading reached a plateau. The column was then washed with PBS until a baseline reading was obtained and then eluted with glycine buffer (0.1M, pH 2.5). The eluted fraction (major peak) was collected and analyzed by HPLC Size Exclusion Chromatography (SEC). The capacity of the column was calculated to be 4.1 mg fibrinogen/ml resin. […]

For “SEQ ID NO:48: fibrinogen binding polypeptide containing the cyclic core peptide of SEQ ID NO: 43 (Ac-AEGTGSLYLCNSYPMHPYCNPGK-NH2; disulfide 10-19 (inferred))”, the “fibrinogen binding capacity of the column” value (ligand density 2.0 μM/ml resin) was 2.076 mg fibrinogen/ml resin and the “fibrinogen binding capacity of the column” value (ligand density 4.0 μM/ml resin) was 4.1 mg fibrinogen/ml resin.
